Experimental data as given in IntAct's records for PubMed 31515488.

B1: Paraneoplastic antigen-like protein 5 (Homo sapiens), Q96PV4 (parent)
chain: MALTLLEDWCKGMDMDPRKALLIVGIPMECSEVEIQDTVKAGLQPLCAYRVLGRMFRREDNAKAVFIELADTVNYTTLPSHIPGKGGSWEVVVKPRNPDDEFLSRLNYFLKDEGRSMTDVARALGCCSLPAESLDAEVMPQVRSPPLEPPKESMWYRKLKVFSGTASPSPGEETFEDWLEQVTEIMPIWQVSEVEKRRRLLESLRGPALSIMRVLQANNDSITVEQCLDALKQIFGDKEDFRASQFRFLQTSPKIGEKVSTFLLRLEPLLQKAVHKSPLSVRSTDMIRLKHLLARVAMTPALRGKLELLDQRGCPPNFLELMKLIRDEEEWENTEAVMKNKEKPSGRGRGASGRQARAEASVSAPQATVQARSFSDSSPQTIQGGLPPLVKRRRLLGSESTRGEDHGQATYPKAENQTPGREGPQAAGEELGNEAGAGAMSHPKPWET
B2: Protein Tob1 (Homo sapiens), P50616 (parent)
chain: MQLEIQVALNFIISYLYNKLPRRRVNIFGEELERLLKKKYEGHWYPEKPYKGSGFRCIHIGEKVDPVIEQASKESGLDIDDVRGNLPQDLSVWIDPFEVSYQIGEKGPVKVLYVDDNNENGCELDKEIKNSFNPEAQVFMPISDPASSVSSSPSPPFGHSAAVSPTFMPRSTQPLTFTTATFAATKFGSTKMKNSGRSNKVARTSPINLGLNVNDLLKQKAISSSMHSLYGLGLGSQQQPQQQQQPAQPPPPPPPPQQQQQQKTSALSPNAKEFIFPNMQGQGSSTNGMFPGDSPLNLSPLQYSNAFDVFAAYGGLNEKSFVDGLNFSLNNMQYSNQQFQPVMAN
B3: Retinoic acid receptor RXR-gamma (Homo sapiens), P48443 (parent)
chain: MYGNYSHFMKFPAGYGGSPGHTGSTSMSPSAALSTGKPMDSHPSYTDTPVSAPRTLSAVGTPLNALGSPYRVITSAMGPPSGALAAPPGINLVAPPSSQLNVVNSVSSSEDIKPLPGLPGIGNMNYPSTSPGSLVKHICAICGDRSSGKHYGVYSCEGCKGFFKRTIRKDLIYTCRDNKDCLIDKRQRNRCQYCRYQKCLVMGMKREAVQEERQRSRERAESEAECATSGHEDMPVERILEAELAVEPKTESYGDMNMENSTNDPVTNICHAADKQLFTLVEWAKRIPHFSDLTLEDQVILLRAGWNELLIASFSHRSVSVQDGILLATGLHVHRSSAHSAGVGSIFDRVLTELVSKMKDMQMDKSELGCLRAIVLFNPDAKGLSNPSEVETLREKVYATLEAYTKQKYPEQPGRFAKLLLRLPALRSIGLKCLEHLFFFKLIGDTPIDTFLMEMLETPLQIT
partner: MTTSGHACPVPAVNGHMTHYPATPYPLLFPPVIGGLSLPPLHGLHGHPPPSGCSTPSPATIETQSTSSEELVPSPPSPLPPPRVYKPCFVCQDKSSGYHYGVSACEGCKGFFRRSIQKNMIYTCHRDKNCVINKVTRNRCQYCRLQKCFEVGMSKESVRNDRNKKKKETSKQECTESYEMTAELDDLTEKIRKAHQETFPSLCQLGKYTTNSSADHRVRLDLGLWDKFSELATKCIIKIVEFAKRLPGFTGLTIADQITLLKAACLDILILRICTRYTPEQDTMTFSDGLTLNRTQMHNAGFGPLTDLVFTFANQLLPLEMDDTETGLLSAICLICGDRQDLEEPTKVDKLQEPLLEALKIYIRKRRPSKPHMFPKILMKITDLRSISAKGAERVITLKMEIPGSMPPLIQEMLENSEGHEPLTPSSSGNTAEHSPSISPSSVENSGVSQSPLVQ
B4: Keratin, type I cuticular Ha8 (Homo sapiens), O76015 (parent)
chain: MTSSYSSSSCPLGCTMAPGARNVSVSPIDIGCQPGAEANIAPMCLLANVAHANRVRVGSTPLGRPSLCLPPTCHTACPLPGTCHIPGNIGICGAYGENTLNGHEKETMQFLNDRLANYLEKVRQLEQENAELEATLLERSKCHESTVCPDYQSYFHTIEELQQKILCSKAENARLIVQIDNAKLAADDFRIKLESERSLRQLVEADKCGTQKLLDDATLAKADLEAQQESLKEEQLSLKSNHEQEVKILRSQLGEKLRIELDIEPTIDLNRVLGEMRAQYEAMLETNRQDVEQWFQAQSEGISLQDMSCSEELQCCQSEILELRCTVNALEVERQAQHTLKDCLQNSLCEAEDRFGTELAQMQSLISNVEEQLSEIRADLERQNQEYQVLLDVKTRLENEIATYRNLLESEDCKLPCNPCSTSPSCVTAPCAPRPSCGPCTTCGPTCGASTTGSRF
partner: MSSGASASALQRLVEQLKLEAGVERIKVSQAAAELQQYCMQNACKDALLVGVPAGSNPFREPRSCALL
B5: CD2 antigen cytoplasmic tail-binding protein 2 (Homo sapiens), O95400 (parent)
chain: MPKRKVTFQGVGDEEDEDEIIVPKKKLVDPVAGSGGPGSRFKGKHSLDSDEEEDDDDGGSSKYDILASEDVEGQEAATLPSEGGVRITPFNLQEEMEEGHFDADGNYFLNRDAQIRDSWLDNIDWVKIRERPPGQRQASDSEEEDSLGQTSMSAQALLEGLLELLLPRETVAGALRRLGARGGGKGRKGPGQPSSPQRLDRLSGLADQMVARGNLGVYQETRERLAMRLKGLGCQTLGPHNPTPPPSLDMFAEELAEEELETPTPTQRGEAESRGDGLVDVMWEYKWENTGDAELYGPFTSAQMQTWVSEGYFPDGVYCRKLDPPGGQFYNSKRIDFDLYT
B6: Serine/threonine-protein phosphatase 6 regulatory ankyrin repeat subunit B (Homo sapiens), Q8N8A2 (parent)
chain: MAVLKLTDQPPLVQAIFSGDPEEIRMLIHKTEDVNTLDSEKRTPLHVAAFLGDAEIIELLILSGARVNAKDNMWLTPLHRAVASRSEEAVQVLIKHSADVNARDKNWQTPLHVAAANKAVKCAEVIIPLLSSVNVSDRGGRTALHHAALNGHVEMVNLLLAKGANINAFDKKDRRALHWAAYMGHLDVVALLINHGAEVTCKDKKGYTPLHAAASNGQINVVKHLLNLGVEIDEINVYGNTALHIACYNGQDAVVNELIDYGANVNQPNNNGFTPLHFAAASTHGALCLELLVNNGADVNIQSKDGKSPLHMTAVHGRFTRSQTLIQNGGEIDCVDKDGNTPLHVAARYGHELLINTLITSGADTAKCGIHSMFPLHLAALNAHSDCCRKLLSSGFEIDTPDKFGRTCLHAAAAGGNVECIKLLQSSGADFHKKDKCGRTPLHYAAANCHFHCIETLVTTGANVNETDDWGRTALHYAAASDMDRNKTILGNAHDNSEELERARELKEKEATLCLEFLLQNDANPSIRDKEGYNSIHYAAAYGHRQCLELLLERTNSGFEESDSGATKSPLHLAAYNGHHQALEVLLQSLVDLDIRDEKGRTALDLAAFKGHTECVEALINQGASIFVKDNVTKRTPLHASVINGHTLCLRLLLEIADNPEAVDVKDAKGQTPLMLAVAYGHIDAVSLLLEKEANVDTVDILGCTALHRGIMTGHEECVQMLLEQEVSILCKDSRGRTPLHYAAARGHATWLSELLQMALSEEDCCFKDNQGYTPLHWACYNGNENCIEVLLEQKCFRKFIGNPFTPLHCAIINDHGNCASLLLGAIDSSIVSCRDDKGRTPLHAAAFADHVECLQLLLRHSAPVNAVDNSGKTALMMAAENGQAGAVDILVNSAQADLTVKDKDLNTPLHLACSKGHEKCALLILDKIQDESLINEKNNALQTPLHVAARNGLKVVVEELLAKGACVLAVDENASRSNGPRSTPGTAVQKEE
B7: Four and a half LIM domains protein 2 (Homo sapiens), Q14192 (parent)
chain: MTERFDCHHCNESLFGKKYILREESPYCVVCFETLFANTCEECGKPIGCDCKDLSYKDRHWHEACFHCSQCRNSLVDKPFAAKEDQLLCTDCYSNEYSSKCQECKKTIMPGTRKMEYKGSSWHETCFICHRCQQPIGTKSFIPKDNQNFCVPCYEKQHAMQCVQCKKPITTGGVTYREQPWHKECFVCTACRKQLSGQRFTARDDFAYCLNCFCDLYAKKCAGCTNPISGLGGTKYISFEERQWHNDCFNCKKCSLSLVGRGFLTERDDILCPDCGKDI
partner: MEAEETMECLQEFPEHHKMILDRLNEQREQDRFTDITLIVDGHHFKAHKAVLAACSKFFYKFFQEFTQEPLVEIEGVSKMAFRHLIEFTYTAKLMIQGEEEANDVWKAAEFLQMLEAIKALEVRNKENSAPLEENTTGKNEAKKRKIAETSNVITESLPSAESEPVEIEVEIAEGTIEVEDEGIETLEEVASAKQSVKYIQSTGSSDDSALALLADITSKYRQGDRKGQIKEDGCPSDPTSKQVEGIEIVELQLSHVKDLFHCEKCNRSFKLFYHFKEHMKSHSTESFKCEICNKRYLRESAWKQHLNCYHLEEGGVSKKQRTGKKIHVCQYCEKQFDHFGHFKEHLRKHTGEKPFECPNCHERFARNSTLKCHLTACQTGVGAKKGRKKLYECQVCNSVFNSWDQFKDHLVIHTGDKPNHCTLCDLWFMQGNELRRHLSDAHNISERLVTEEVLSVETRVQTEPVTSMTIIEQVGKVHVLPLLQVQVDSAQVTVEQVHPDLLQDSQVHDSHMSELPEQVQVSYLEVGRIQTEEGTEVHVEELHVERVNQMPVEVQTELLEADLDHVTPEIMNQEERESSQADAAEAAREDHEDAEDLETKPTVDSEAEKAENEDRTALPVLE

Variants of: B1
Conditions: with arpc4_human ARPC4, P59998

| Variant | effect of a mutation on the interaction |
| --- | --- |
| R312Q | with no effect |

Variants of: B1
Conditions: with zfy26_human ZFYVE26, Q68DK2
Chain of zfy26_human ZFYVE26, Q68DK2 (Q68DK2 whole entry): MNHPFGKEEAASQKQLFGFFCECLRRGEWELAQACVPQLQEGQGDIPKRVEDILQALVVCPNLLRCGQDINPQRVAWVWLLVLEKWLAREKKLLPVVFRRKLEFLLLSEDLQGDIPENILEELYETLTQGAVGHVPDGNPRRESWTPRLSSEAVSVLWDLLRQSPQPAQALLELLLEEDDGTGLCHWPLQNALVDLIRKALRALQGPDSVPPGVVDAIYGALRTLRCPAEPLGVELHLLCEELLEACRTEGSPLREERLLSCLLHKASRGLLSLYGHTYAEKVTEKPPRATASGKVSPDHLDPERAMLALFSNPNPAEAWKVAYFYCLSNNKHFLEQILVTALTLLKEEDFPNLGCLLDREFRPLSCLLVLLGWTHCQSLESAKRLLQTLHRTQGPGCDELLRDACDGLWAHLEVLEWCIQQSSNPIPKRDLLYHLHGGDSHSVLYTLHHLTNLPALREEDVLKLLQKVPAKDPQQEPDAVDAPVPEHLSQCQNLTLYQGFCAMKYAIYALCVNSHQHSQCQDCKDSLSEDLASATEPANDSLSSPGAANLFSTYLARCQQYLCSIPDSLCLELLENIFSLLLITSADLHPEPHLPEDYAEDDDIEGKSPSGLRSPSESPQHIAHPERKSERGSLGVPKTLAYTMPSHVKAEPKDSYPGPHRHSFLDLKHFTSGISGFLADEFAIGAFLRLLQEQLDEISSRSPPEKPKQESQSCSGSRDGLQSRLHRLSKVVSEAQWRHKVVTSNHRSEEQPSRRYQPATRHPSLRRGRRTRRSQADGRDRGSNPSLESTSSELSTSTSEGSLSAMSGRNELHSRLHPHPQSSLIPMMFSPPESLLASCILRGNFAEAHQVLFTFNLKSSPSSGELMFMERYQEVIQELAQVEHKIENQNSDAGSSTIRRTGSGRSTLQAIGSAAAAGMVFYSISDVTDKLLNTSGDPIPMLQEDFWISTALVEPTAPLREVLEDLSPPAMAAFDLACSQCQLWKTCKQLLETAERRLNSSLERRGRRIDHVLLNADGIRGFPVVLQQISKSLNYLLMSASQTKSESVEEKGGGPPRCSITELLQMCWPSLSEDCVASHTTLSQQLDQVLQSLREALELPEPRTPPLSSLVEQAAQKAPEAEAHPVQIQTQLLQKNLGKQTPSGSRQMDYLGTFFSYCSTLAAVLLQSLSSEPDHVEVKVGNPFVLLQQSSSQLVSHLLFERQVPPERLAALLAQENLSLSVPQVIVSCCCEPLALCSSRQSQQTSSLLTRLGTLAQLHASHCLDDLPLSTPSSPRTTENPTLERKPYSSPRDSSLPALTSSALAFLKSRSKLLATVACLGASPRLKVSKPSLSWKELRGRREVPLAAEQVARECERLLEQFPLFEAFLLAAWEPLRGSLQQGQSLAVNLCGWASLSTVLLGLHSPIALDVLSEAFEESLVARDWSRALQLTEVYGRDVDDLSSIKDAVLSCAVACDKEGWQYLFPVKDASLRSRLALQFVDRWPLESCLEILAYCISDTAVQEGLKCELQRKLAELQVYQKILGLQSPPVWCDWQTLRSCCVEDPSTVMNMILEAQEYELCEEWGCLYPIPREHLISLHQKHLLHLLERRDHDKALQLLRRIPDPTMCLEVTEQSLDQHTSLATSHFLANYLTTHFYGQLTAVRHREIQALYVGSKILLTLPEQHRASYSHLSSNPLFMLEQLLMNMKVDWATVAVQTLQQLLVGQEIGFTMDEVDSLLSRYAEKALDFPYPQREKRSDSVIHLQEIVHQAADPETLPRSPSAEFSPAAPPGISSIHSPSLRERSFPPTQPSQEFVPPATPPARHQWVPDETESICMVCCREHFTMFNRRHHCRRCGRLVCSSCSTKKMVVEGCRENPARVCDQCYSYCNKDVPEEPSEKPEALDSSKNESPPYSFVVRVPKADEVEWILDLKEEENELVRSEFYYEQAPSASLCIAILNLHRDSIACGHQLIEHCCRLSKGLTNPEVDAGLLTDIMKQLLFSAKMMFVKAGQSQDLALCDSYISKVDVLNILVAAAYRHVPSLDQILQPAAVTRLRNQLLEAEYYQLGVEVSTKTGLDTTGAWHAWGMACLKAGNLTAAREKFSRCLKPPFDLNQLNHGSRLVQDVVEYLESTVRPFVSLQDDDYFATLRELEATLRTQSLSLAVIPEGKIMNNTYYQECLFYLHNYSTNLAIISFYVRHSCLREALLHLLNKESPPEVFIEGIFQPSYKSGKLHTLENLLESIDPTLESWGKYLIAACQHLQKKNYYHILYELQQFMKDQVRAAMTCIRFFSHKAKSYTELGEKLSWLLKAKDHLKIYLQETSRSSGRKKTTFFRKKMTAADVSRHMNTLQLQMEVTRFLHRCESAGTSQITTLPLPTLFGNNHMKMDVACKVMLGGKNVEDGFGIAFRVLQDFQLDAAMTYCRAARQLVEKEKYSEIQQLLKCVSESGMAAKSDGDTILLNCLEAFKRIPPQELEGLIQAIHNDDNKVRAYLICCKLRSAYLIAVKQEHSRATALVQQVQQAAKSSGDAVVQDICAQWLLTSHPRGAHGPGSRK

| Variant | effect of a mutation on the interaction |
| --- | --- |
| R312Q | with no effect |

Variants of: B1
Conditions: with ccnc_human CCNC

| Variant | effect of a mutation on the interaction |
| --- | --- |
| R312Q | with no effect |

Variants of: B1
Conditions: with aapk1_human PRKAA1, Q13131
Chain of aapk1_human PRKAA1, Q13131 (Q13131 whole entry, looked up): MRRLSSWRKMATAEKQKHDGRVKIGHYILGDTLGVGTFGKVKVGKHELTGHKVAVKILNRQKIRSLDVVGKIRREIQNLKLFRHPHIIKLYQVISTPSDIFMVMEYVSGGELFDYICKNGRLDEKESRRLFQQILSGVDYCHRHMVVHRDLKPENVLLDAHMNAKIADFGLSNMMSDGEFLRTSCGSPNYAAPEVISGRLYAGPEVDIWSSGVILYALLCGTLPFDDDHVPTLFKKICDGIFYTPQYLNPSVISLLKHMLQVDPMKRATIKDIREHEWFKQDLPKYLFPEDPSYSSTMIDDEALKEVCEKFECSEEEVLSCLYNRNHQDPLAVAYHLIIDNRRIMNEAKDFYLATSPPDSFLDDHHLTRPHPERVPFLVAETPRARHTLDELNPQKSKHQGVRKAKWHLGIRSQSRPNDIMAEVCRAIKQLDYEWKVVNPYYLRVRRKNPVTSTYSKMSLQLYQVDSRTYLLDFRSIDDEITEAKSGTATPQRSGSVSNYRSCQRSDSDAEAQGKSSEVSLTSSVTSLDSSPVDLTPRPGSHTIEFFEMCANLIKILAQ

| Variant | effect of a mutation on the interaction |
| --- | --- |
| R312Q | with no effect |

Variants of: B2
Conditions: with cnot7_human CNOT7, Q9UIV1
Chain of cnot7_human CNOT7, Q9UIV1 (Q9UIV1 whole entry): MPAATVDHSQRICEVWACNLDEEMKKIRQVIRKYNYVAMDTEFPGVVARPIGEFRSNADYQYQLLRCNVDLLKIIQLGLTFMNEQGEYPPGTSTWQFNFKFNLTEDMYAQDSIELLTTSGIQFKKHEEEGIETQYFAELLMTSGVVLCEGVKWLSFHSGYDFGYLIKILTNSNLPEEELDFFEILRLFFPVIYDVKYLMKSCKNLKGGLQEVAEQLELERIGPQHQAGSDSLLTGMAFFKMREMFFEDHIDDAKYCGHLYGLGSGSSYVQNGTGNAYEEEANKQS

| Variant | effect of a mutation on the interaction |
| --- | --- |
| MQLEIQVALNFIISYLYNKLPRRRVNIFGEELERLLKKKYEGHWYPEKPNKGSGFRCIHIGEKVDPVIEQASKESGLDIDDVRGNLPQDLSVWIDPFEVSYQIGEKGPVKVLYVDDNNENGCELDKEIKNSFNPEAQVFMPISDPASSVSSSPSPPFGHSAAVSPTFMPRSTQPLTFTTATFAATKFGSTKMKNSGRSNKVARTSPINLGLNVNDLLKQKAISSSMHSLYGLGLGSQQQPQQQQQPAQPPPPPPPPQQQQQQKTSALSPNAKEFIFPNMQGQGSSTNGMFPGDSPLNLSPLQYSNAFDVFAAYGGLNEKSFVDGLNFSLNNMQYSNQQFQPVMAN [Y50N] | with no effect |

Variants of: B3
Conditions: with rarb_human RARB

| Variant | effect of a mutation on the interaction |
| --- | --- |
| MYGNYSHFMKFPAGYGGSPGHTGSTSMSPSAALSTGKPMDSHPSYTDTPVSAPRTLSAVGTPLNALGSPYRVITSAMGPPSGALAVPPGINLVAPPSSQLNVVNSVSSSEDIKPLPGLPGIGNMNYPSTSPGSLVKHICAICGDRSSGKHYGVYSCEGCKGFFKRTIRKDLIYTCRDNKDCLIDKRQRNRCQYCRYQKCLVMGMKREAVQEERQRSRERAESEAECATSGHEDMPVERILEAELAVEPKTESYGDMNMENSTNDPVTNICHAADKQLFTLVEWAKRIPHFSDLTLEDQVILLRAGWNELLIASFSHRSVSVQDGILLATGLHVHRSSAHSAGVGSIFDRVLTELVSKMKDMQMDKSELGCLRAIVLFNPDAKGLSNPSEVETLREKVYATLEAYTKQKYPEQPGRFAKLLLRLPALRSIGLKCLEHLFFFKLIGDTPIDTFLMEMLETPLQIT [A86V] | with no effect |

Variants of: B4
Conditions: with gbg10_human GNG10, P50151

| Variant | effect of a mutation on the interaction |
| --- | --- |
| MTSSYSSSSCPLGCTMAPGARNVSVSPIDIGCQPGAEANIAPMCLLANVAHANRVRVGSTPLGRPSLCLPPTCHTACPLPGTCHIPGNIGICGAYGENTLNGHEKETMQFLNDRLANYLEKVRQLEQENAELEATLLERSKCHESTVCPDYQSYFHTIEELQQKILCSKAENARLIVQIDNAKLAADDFRIKLESERSLRQLVESDKCGTQKLLDDATLAKADLEAQQESLKEEQLSLKSNHEQEVKILRSQLGEKLRIELDIEPTIDLNRVLGEMRAQYEAMLETNRQDVEQWFQAQSEGISLQDMSCSEELQCCQSEILELRCTVNALEVERQAQHTLKDCLQNSLCEAEDRFGTELAQMQSLISNVEEQLSEIRADLERQNQEYQVLLDVKTRLENEIATYRNLLESEDCKLPCNPCSTSPSCVTAPCAPRPSCGPCTTCGPTCGASTTGSRF [A205S] | with no effect |

Variants of: B5
Conditions: with rsmb_human SNRPB

| Variant | effect of a mutation on the interaction |
| --- | --- |
| MPKRKVTFQGVGDEEDEDEIIVPKKKLVDPVAGSGGPGSRFKGKHSLDSDEEEDDDDGGSSKYDILASEDVEGQEAATLPSEGGVRITPFNLQEEMEEGHFDADGNYFLNRDAQIRDSWLDNIDWVKIRERPPGQRQASDSEEEDSLGQTSMSAQALLEGLLELLLPRETVAGALRRLGARGGGKGRKGPGQPSSPQRLDRLSGLADQMVARGNLGVYQETRERLAMRLKGLGCQTLGPHNPTPPPSLDMFAEELAEEELEIPTPTQRGEAESRGDGLVDVMWEYKWENTGDAELYGPFTSAQMQTWVSEGYFPDGVYCRKLDPPGGQFYNSKRIDFDLYT [T262I] | with no effect |

Variants of: B6
Conditions: with wwp2_human WWP2, O00308
Chain of wwp2_human WWP2, O00308 (O00308 whole entry): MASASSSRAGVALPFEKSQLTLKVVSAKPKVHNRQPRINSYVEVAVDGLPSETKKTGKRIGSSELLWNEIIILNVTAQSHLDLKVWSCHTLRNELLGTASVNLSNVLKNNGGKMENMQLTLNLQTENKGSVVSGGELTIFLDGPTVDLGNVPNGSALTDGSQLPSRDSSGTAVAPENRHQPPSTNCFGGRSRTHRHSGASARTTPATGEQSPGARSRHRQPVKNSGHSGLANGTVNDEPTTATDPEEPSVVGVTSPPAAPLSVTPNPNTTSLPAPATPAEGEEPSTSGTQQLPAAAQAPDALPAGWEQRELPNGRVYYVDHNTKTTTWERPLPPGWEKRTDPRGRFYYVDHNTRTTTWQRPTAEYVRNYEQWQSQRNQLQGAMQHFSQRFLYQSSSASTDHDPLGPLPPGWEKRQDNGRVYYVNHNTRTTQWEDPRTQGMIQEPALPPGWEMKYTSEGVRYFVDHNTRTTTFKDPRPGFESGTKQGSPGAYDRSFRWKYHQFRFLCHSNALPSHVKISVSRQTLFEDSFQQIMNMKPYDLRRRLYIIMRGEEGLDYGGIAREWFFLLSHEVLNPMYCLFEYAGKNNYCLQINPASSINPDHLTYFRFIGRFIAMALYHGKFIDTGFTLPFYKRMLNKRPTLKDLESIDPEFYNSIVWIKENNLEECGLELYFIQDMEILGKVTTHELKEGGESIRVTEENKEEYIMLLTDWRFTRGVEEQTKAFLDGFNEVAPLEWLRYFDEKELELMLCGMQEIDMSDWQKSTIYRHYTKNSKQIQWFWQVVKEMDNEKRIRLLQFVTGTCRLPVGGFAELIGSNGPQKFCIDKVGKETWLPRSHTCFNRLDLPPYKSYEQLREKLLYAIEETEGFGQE

| Variant | effect of a mutation on the interaction |
| --- | --- |
| R80W | disrupting interaction strength |

Variants of: B7
Conditions: with zn131_human ZNF131, P52739

| Variant | effect of a mutation on the interaction |
| --- | --- |
| MTERFDCHHCNESLFGKKYILREESPYCVVCFETLFSNTCEECGKPIGCDCKDLSYKDRHWHEACFHCSQCRNSLVDKPFAAKEDQLLCTDCYSNEYSSKCQECKKTIMPGTRKMEYKGSSWHETCFICHRCQQPIGTKSFIPKDNQNFCVPCYEKQHAMQCVQCKKPITTGGVTYREQPWHKECFVCTACRKQLSGQRFTARDDFAYCLNCFCDLYAKKCAGCTNPISGLGGTKYISFEERQWHNDCFNCKKCSLSLVGRGFLTERDDILCPDCGKDI [A37S] | with no effect |
